Experimental data: publication PMC2976503 (The Journal of neuroscience : the official journal of the …, 2010)

Biological target: the molecule itself
Experiment: SDS-resistant high molecular mass complex on SDS-PAGE

B1: GABAA receptor γ2S(Q351X)^FLAG subunit (domain or fragment, human, UniProt P18507-1 40-389, looked up)
chain: QKSDDDYEDYASNKTWVLTPKVPEGDVTVILNNLLEGYDNKLRPDIGVKPTLIHTDMYVNSIGPVNAINMEYTIDIFFAQTWYDRRLKFNSTIKVLRLNSNMVGKIWIPDTFFRNSKKADAHWITTPNRMLRIWNDGRVLYTLRLTIDAECQLQLHNFPMDEHSCPLEFSSYGYPREEIVYQWKRSSVEVGDTRSWRLYQFSFVGLRNTTEVVKTTSGDYVVMSVYFDLSRRMGYFTIQTYIPCTLIVVLSWVSFWINKDAVPARTSLGITTVLTMTTLSTIARKSLPKVSYVTAMDLFVSVCFIFVFSALVEYGTLHYFVSNRKPSKDKDKKKKNPAPTIDIRPRSATI
  stoichiometry N: 2
